The values below come from PMC10899635, “Q586B2 is a crucial virulence factor during the early stages of Trypanosoma brucei infection that is conserved amongst trypanosomatids” (Nature Communications, 2024).

The experiment has as its target recombinant Q586B2 protein (Trypanosoma brucei brucei). The experiment can be described thus: SEC; size exclusion chromatography after IMAC; uniform peak of approximately 55 kDa.

Turning to “recombinant Q586B2 protein (natural protein)”, the stoichiometry N is 4.
